System: MS2 coat protein
Assay: apparent KD of MS2 coat protein; designed switch direction (-1 OFF switch, 1 ON switch): -1; higher = weaker reporter binding
Summary of the method: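 Each step of the titration lasted 0.8–1.5 h at the lowest concentration and 10–20 min at the highest. The protein, SNAP-549-labelled MS2 coat protein, went from 0.7 or 1.5 nM doubling to 3 µM over RNA switches transcribed on Illumina chips by stalled E. coli RNA polymerase. Normalised cluster fluorescence was curve-fitted, and the per-design median over clusters is given as apparent KD.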

[1] = Eterna round: R95, input ligand: microRNA oligo, concentration not stated
[2] = Eterna round: R95, input ligand: FMN 200 uM
[3] = Eterna round: R95, input ligand: none
[4] = input ligand: microRNA oligo, concentration not stated

Row | Sequence | apparent KD of MS2 coat protein (input ligand: FMN 200 uM) | apparent KD of MS2 coat protein (input ligand: none) | apparent KD of MS2 coat protein [1] | further results
1 | CGAGCUCAUGUGAGGAUAUACCUAUGGAUACAUAGGUAGAAGGCACAUGAGGAUCACCCAUGUCCUUGAGCUCG [jl-bmx4-4.59 Eli mod] (Eterna round: R97, puzzle: Brourd's mod of Exclusion 4) | 309 nM | 50.4 nM |  | 
2 | CGAGCUGCUGUGAGGAUAUACCUGUGGGUGCGUGGGUAGAAGGCACAUGAGGAUCACCCAUGUCCUGCAGCUCG [salish99_bmx4_r4_105] (Eterna round: R97, puzzle: Brourd's mod of Exclusion 4) | 594 nM | 1060 nM |  | 
3 | CGAUGAGGAGUGAGGAUAUCGUGUUCGAAAGAACGUGAGAAGGCACAUGAGGAUCACCCAUGUGAACCUUGUCG [Omei Ex4B A10] (Eterna round: R97, puzzle: Brourd's mod of Exclusion 4) | 22.5 nM | 15.8 nM |  | 
4 | CGAUGUUAUGUCAGGAUAUACAUUGCGAAAGCAAUGUAGAAGGGACAUGAGGAUCACCCAUGUCCUAACCAUCG [Omei A 3] (puzzle: Brourd's mod of Exclusion 4) |  |  | 12.7 nM | 
5 | CGCGACUCAGGAUAUACAUGAGGAUCACCCAUGUGGAACGACUGGGUCGAUAAAAGGUGUAGAAGGGAGGAAAA [Invebies] (puzzle: Exclusion 3) |  |  | 12.6 nM | apparent KD of MS2 coat protein [2]: 15.4 nM; apparent KD of MS2 coat protein [3]: 15.4 nM
6 | CGCGCCUGGGUCGAACGACACAUGAGGAUCACCCAUGUCAGAGGCGUAGAAUGCACAAGCUUUGACCUCGUUACGCU [Eternabot (L2) Solution 39] (Eterna round: R97, puzzle: Sensor, turn-off variant 1) | 18 nM | 18.5 nM |  | 
7 | CGCGCCUUUGUCAGGAUAUUCGGACGAGCCCGGCCGGAGAAGGGACUUGAGGAUCACCCAAGUGACGCGAAGAC [Anrearra] (Eterna round: R97, puzzle: Brourd's mod of Exclusion 4) | 35.1 nM | 31.9 nM |  | 
8 | CGCUGGACAGGAUAUGUUCUUGGGCACUUGAGGAUCACCCAAGUCAUCGGGACAUCAGGCACAGAAGGGUUGUUGG [salish99_ex5_r4_028] (Eterna round: R97, puzzle: Exclusion 5) | 25.5 nM | 27.1 nM |  | 
9 | CGGCAUGUCUGAGGAUAUCUGCACGUUUAGUGCAGAGAAGGCAGAACAUGAGGAUCACCCAUGUAGAUCAUUAACCGAUUAAUU [ENG1/7-A2] (Eterna round: R96, puzzle: Exclusion NG 1) |  |  |  | apparent KD of MS2 coat protein [4]: 182 nM
10 | CGGCGACAUGAGGAUCACCCAUGUGAGGAUAUGACGGGAAAAGCGUGAGCAGUUUGUGGCAGAAGGCGCGUAGG [salish99_ex1_r4_083] (Eterna round: R97, puzzle: Exclusion 1) | 23.5 nM | 117 nM |  | 
11 | CGGGCAUGAGGAUAUCGAGGUUAGUACAUGAGGAUCACCCAUGUUAUCCAGGUGUCGGUUCGAGAAGGCAUGGCCG [LRO-Ex5-11] (puzzle: Exclusion 5) |  |  | 230 nM | apparent KD of MS2 coat protein [2]: 464 nM; apparent KD of MS2 coat protein [3]: 340 nM
12 | CGGGCCGGCCUUCCGGCCGGCCCGACAUGAGGAUCACCCAUGUAGGAUAUCCCGGCUGCCGGCCGGGAGAAGGGCGUGCGCUUU [-47.6, -45.1 kcal, 14% A] (Eterna round: R96, puzzle: Exclusion NG 3) | 36.5 nM | 36.5 nM |  | apparent KD of MS2 coat protein [4]: 20.8 nM
13 | CGGUAAAUAGGAUAUACAUGAGGAUCACCCAUGUUCCAUAGCACUCGGAGGGUUCCCAGUAGAAGGGUUGGCCU [EX3 C.17] (Eterna round: R97, puzzle: Exclusion 3) | 16 nM | 19.4 nM |  | 
14 | CGGUACUGAGGAUAUACAUGAGGAUCACCCAUGUGUACUAGCUAGCGUACUGGCAUUAGUAGAAGGCGGUGCUG [JL-ex3-3.20 Brourd mod] (puzzle: Exclusion 3) |  |  | 11.5 nM | apparent KD of MS2 coat protein [2]: 19.8 nM; apparent KD of MS2 coat protein [3]: 13.2 nM
15 | CGGUGACAUGAGGAUCACCCAUGUCAGGAUAUCCAGGUCGACAAUGAGCUGUACGAUUGGAGAAGGGAUACGGG [EX1 C.9] (Eterna round: R97, puzzle: Exclusion 1) | 20.6 nM | 23.7 nM |  | 
16 | CGGUGCUCGUGGAAACAUGAGGAUCACCCAUGUAGAGUUAGCGAGGAUAUCGGUAACACACAUCACGAGAAGGCGCGAACCUGU [Ex NG3 #6] (Eterna round: R96, puzzle: Exclusion NG 3) | 31.7 nM | 20.8 nM |  | apparent KD of MS2 coat protein [4]: 12.1 nM
17 | CGGUGCUGAGGAUAUACAUGAGGAUCACCCAUGUGUUCCAGCUAGCGUACUGGCAGAUGUAGAAGGCGGUACUG [JL-ex3-3.42 Brourd mod] (puzzle: Exclusion 3) |  |  | 19.9 nM | apparent KD of MS2 coat protein [2]: 78.9 nM; apparent KD of MS2 coat protein [3]: 19 nM
18 | CGGUGUAGAGGAUAUACGUGAAUAUAAGAACAUAAUAAUUAACAUGAGGAUCACCCAUGUAGAAGGCUAUAGCG [JR_Ex2_Sub081] (Eterna round: R97, puzzle: Exclusion 2) | 34.3 nM | 16.7 nM |  | 
19 | CGGUGUAGAGGAUAUACGUGAAUUUUGUUAUUUUUUAAUUUACAUGAGGAUCACCCAUGUAGAAGGCUAUAGCG [JR_Ex2_Sub086] (Eterna round: R97, puzzle: Exclusion 2) | 23.4 nM | 21.9 nM |  | 
20 | CGGUGUAGAGGAUAUACGUGGAUGUAAAUUCAUGAUAUUUUACAUGAGGAUCACCCAUGUAGAAGGCUAUAGCG [JR_Ex2_Sub078] (Eterna round: R97, puzzle: Exclusion 2) | 74.2 nM | 229 nM |  | 
21 | CGGUGUCAUGUAAGGAUAUCGCAUCCCAGCGGAUACGAGAAGGUACAUGAGGAUCACCCAUGUACGAUAAAAUA [Atzabian] (puzzle: Brourd's mod of Exclusion 4) |  |  | 12.5 nM | 
22 | CGUACUGAAGUAAGGAUAUUGUCUCGGAUACGAAACAAGAAGGUACAUGAGGAUCACCCAUGUUGACAGUACGA [Malc #30 mod 8] (puzzle: Brourd's mod of Exclusion 4) |  |  | 14 nM | 
23 | CGUACUGAAGUUAGGAUAUUGUCUCGGAUACGAAACAAGAAGGGACAUGAGGAUCACCCAUGUAGACAGUACGA [Malc #30 mod 4] (puzzle: Brourd's mod of Exclusion 4) |  |  | 27.1 nM | apparent KD of MS2 coat protein [2]: 24.7 nM; apparent KD of MS2 coat protein [3]: 27.7 nM
24 | CGUAGCAAAGUGAGGAUAUCUAGAGCGAUAGCUCUAGAGAAGGCACAUGAGGAUCACCCAUGUGAUUAGCUACG [BmEx4/9-A4] (Eterna round: R97, puzzle: Brourd's mod of Exclusion 4) | 146 nM | 27.8 nM |  | 
25 | CGUAUGUGAGGAUAUGACAAUGGUAUCUUCGGAUACCAUUGUCAGAAGGUACAUGAGGAUCACCCAUGUAGAUC [Exclusion 4 - Mod Brourd Ex 4-3: 20 v.3] (puzzle: Exclusion 4) |  |  | 24 nM | 
26 | CGUAUGUGAGGAUAUGGUCUCGAUGACAUGAGGAUCACCCAUGUAACAUGGGACUUGUGACUAGAAGGCACUAACG [JR_Ex5_Sub023] (Eterna round: R97, puzzle: Exclusion 5) | 29.1 nM | 17.4 nM |  | 

Reference: the supplement of paper PMC9170038
